According to US20240024426A1, “HYPOTENSIVE PHARMACEUTICAL COMPOSITION COMPRISING TRIPLE ACTIVATOR HAVING ACTIVITY FOR ALL OF GLUCAGON, GLP-1, AND GIP RECEPTORS” (HANMI PHARM. CO., LTD., priority 2020, published 2024):
Bridges are numbered along the chain shown (N, C = ends). Where no end group is shown, it is not given here. [ ]: non-standard residue; d: D form. The star is where a group is joined. Acetyl(2-(4-imidazolyl)) = O=C(Cc1c[nH]cn1)*; Aib = CC(C)(N)C(=O)O

Key:
Test in all cases: cell-based or functional assay
human GLP-1 receptor = human GLP-1 receptor (human, UniProt P43220 24-463)
human GCG receptor = human GCG receptor (human, UniProt P47871 26-477)
Chain of human GCG receptor (P47871 26-477): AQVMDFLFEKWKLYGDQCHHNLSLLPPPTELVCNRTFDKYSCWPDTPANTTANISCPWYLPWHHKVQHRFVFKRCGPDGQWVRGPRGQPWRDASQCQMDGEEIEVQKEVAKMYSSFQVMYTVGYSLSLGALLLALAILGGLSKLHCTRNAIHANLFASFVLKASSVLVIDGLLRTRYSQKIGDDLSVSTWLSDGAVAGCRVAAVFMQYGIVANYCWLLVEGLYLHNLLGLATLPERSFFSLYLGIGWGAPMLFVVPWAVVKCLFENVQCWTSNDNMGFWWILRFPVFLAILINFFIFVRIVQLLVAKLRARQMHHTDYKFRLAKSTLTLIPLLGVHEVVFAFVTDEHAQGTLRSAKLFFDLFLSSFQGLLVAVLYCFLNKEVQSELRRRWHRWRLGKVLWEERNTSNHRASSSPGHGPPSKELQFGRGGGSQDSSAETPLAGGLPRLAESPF

human GIP receptor = molecular target: T1, human GIP receptor (human, UniProt P48546 22-466)
T1 sequence (looked up): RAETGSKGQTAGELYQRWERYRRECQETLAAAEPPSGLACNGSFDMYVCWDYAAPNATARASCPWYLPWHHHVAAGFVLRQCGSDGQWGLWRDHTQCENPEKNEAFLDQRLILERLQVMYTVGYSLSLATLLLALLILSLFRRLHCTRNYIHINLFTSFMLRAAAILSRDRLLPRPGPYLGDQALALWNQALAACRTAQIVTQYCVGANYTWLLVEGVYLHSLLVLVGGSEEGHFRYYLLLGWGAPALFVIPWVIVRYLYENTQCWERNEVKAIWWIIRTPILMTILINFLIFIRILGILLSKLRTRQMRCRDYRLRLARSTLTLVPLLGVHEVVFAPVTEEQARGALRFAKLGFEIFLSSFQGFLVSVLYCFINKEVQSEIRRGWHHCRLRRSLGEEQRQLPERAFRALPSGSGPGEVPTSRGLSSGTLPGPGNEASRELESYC

| Binder | In vitro activity compared with native peptide (%) vs. GLP-1 (human GLP-1 receptor) [%] | In vitro activity compared with native peptide (%) vs. Glucagon (human GCG receptor) [%] | In vitro activity compared with native peptide (%) vs. GIP (human GIP receptor) [%] |
| --- | --- | --- | --- |
| {Acetyl(2-(4-imidazolyl))}-[Aib]QGTFTSDYSKCLDEKRAKEFVQWLLDHHPSSGQPPPS (bridge 15-19) [Triple agonist of SEQ ID NO: 74] | 12.9 | 0.9 | 1 |
| {Acetyl(2-(4-imidazolyl))}-[Aib]QGTFTSDYSKYLDEKRQKEFVNWLLAQC (bridge 15-19) [Triple agonist of SEQ ID NO: 86] | 28.4 | 0.4 | 0.2 |
| Y[Aib]QGTFTSDYSKYLDEKAAKDFVQWLLDHHPSSGQPPPSC (bridge 16-20) [Triple agonist of SEQ ID NO: 77] | 38.7 | 12.2 | 35.5 |
| H[Aib]EGTFTSDYSIAMDEIHQKDFVDWLLAEKC (bridge 16-20) [Triple agonist of SEQ ID NO: 80] | 8.1 | 0 | 0.1 |
| {Acetyl(2-(4-imidazolyl))}-[Aib]QGTFTSDYSIAMDEIHQKDFVNWLLAQC (bridge 15-19) [Triple agonist of SEQ ID NO: 85] | 4.3 | < 0.1 | 0.3 |
| {Acetyl(2-(4-imidazolyl))}-[Aib]QGTFTSDYSKYLDEKRQKEFVQWLLDTC (bridge 15-19) [Triple agonist of SEQ ID NO: 82] | 9.5 | 1.1 | < 0.1 |
| {Acetyl(2-(4-imidazolyl))}-[Aib]QGTFTSDYSKYLDEKRQKEFVQWLLNTC (bridge 15-19) [Triple agonist of SEQ ID NO: 81] | 7.8 | 0.3 | < 0.1 |
| {Acetyl(2-(4-imidazolyl))}-[Aib]EGTFTSDYSIAMDEIHQKDFVNWLLAQC (bridge 15-19) [Triple agonist of SEQ ID NO: 83] | 47.3 | 1.3 | 0.4 |
| {Acetyl(2-(4-imidazolyl))}-[Aib]EGTFTSDYSIAMDEIHQKDFVDWLLAEKC (bridge 15-19) [Triple agonist of SEQ ID NO: 91] | 31.9 | 16.8 | 0.3 |
| {Acetyl(2-(4-imidazolyl))}-[Aib]QGTFTSDYSKYLDEKRQKEFVQWLLNTKC (bridge 15-19) [Triple agonist of SEQ ID NO: 88] | 9.6 | 0.3 | < 0.1 |
| {Acetyl(2-(4-imidazolyl))}-[Aib]EGTFTSDYSIAMDEIHQKDFVNWLLAQKC (bridge 15-19) [Triple agonist of SEQ ID NO: 90] | 7.4 | < 0.1 | < 0.1 |
| H[Aib]QGTFTSDYSKYLDEKRQKEFVQWLLDTKC (bridge 16-20) [Triple agonist of SEQ ID NO: 78] | 51 | 14 | 0.12 |
| H[Aib]QGTFTSDVSKYLDGQAAQEFVAWLLKGC [Triple agonist of SEQ ID NO: 8] | 14.2 | 0.1 | < 0.1 |
| H[Aib]QGTFTSDVSKYLDGQAAQEFVAWLLAGC [Triple agonist of SEQ ID NO: 9] | 32.1 | 0.13 | < 0.1 |
| {Acetyl(2-(4-imidazolyl))}-[Aib]QGTFTSDYSIAMDEIHQKDFVNWLLNTC (bridge 15-19) [Triple agonist of SEQ ID NO: 87] | 0.9 | < 0.1 | < 0.1 |
| Y[Aib]QGTFTSDYSKYLDEKAAKEFVQWLLDHHPSSGQPPPSC (bridge 16-20) [Triple agonist of SEQ ID NO: 75] | 35.1 | 8.5 | 18 |
| H[Aib]EGTFTSDYSIAMDEIHQKDFVNWLLAQKC (bridge 16-20) [Triple agonist of SEQ ID NO: 79] | 41.5 | 4.9 | 1.4 |
| Y[Aib]QGTFTSDYSKYLDEKRAKDFVQWLLDHHPSSGQPPPSC (bridge 16-20) [Triple agonist of SEQ ID NO: 76] | 10.3 | 47.6 | 11.7 |
| Y[Aib]QGTFTSDCSKYLDERAAKDFVQWLLDHHPSSGQPPPS (bridge 16-20) [Triple agonist of SEQ ID NO: 72] | 11.5 | 1 | 1.6 |
| {Acetyl(2-(4-imidazolyl))}-[Aib]EGTFTSDYSIAMDEIHQKDFVDWLLAEC (bridge 15-19) [Triple agonist of SEQ ID NO: 84] | 4.2 | < 0.1 | < 0.1 |
| {Acetyl(2-(4-imidazolyl))}-[Aib]QGTFTSDYSKYLDECRAKEFVQWLLDHHPSSGQPPPS (bridge 15-19) [Triple agonist of SEQ ID NO: 73] | 22.6 | 5.4 | 3 |
| {Acetyl(2-(4-imidazolyl))}-[Aib]QGTFTSDYSKYLDEKRQKEFVQWLLDTKC (bridge 15-19) [Triple agonist of SEQ ID NO: 89] | 7.1 | 0.7 | < 0.1 |
